Measured values from PMC11121168.

Tested on: CC[C@H](NC(=O)OC(C)(C)C)C(=O)N[C@H](C(=O)N[C@@H](CC(C)C)C(=O)N[C@@H](CCC(N)=O)C(=O)Nc1ccc2c(C)cc(=O)oc2c1)C(C)(C)C
Assay: purified protein, by the assay type
Details: pH 7.2; 37.0 °C

Substance: C-terminally His-tagged SARS-CoV-2 Mpro (Severe acute respiratory syndrome coronavirus 2)
- Km: 85.2 ± 5.6 µM
